B1: EF‐CF (peptide)
peptide: KFKFQFN
notes: designed variant of enhancing factor-C (EF-C), pattern KXKXQXN with X = F; self-assembling peptide; made on Fmoc-Asn(Trt) Wang resin; also called KFKFQFN; source: synthetic peptide (Fmoc-SPPS, preparative RP-HPLC, purity ≥ 90 %)
B2: EF‐CI (peptide)
peptide: KIKIQIN
notes: designed variant of enhancing factor-C (EF-C), pattern KXKXQXN with X = I; self-assembling peptide; made on Fmoc-Asn(Trt) Wang resin; also called KIKIQIN; source: synthetic peptide (Fmoc-SPPS, preparative RP-HPLC, purity ≥ 90 %)
B3: EF‐CL (peptide)
peptide: KLKLQLN
notes: designed variant of enhancing factor-C (EF-C), pattern KXKXQXN with X = L; self-assembling peptide; made on Fmoc-Asn(Trt) Wang resin; also called KLKLQLN; source: synthetic peptide (Fmoc-SPPS, preparative RP-HPLC, purity ≥ 90 %)
B4: EF‐CW (peptide)
peptide: KWKWQWN
notes: designed variant of enhancing factor-C (EF-C), pattern KXKXQXN with X = W; self-assembling peptide; made on Fmoc-Asn(Trt) Wang resin; also called KWKWQWN; source: synthetic peptide (Fmoc-SPPS, preparative RP-HPLC, purity ≥ 90 %)
B5: EF‐CV (peptide)
peptide: KVKVQVN
notes: designed variant of enhancing factor-C (EF-C), pattern KXKXQXN with X = V; self-assembling peptide; made on Fmoc-Asn(Trt) Wang resin; also called KVKVQVN; source: synthetic peptide (Fmoc-SPPS, preparative RP-HPLC, purity ≥ 90 %)

Target: the molecule itself
Assay: dynamic light scattering; self-assembly; peptide diluted from 10 mM DMSO stock into DPBS (6 μM to 1 mM), 24 h incubation, room temperature; derived count rate below 5 kcps defined as no aggregation
With B1 the aggregation concentration was ≤ 100 µM. With B2 the aggregation concentration was ≤ 100 µM. B3 was tested, and the aggregation concentration was ≤ 100 µM. B4 was tested, and the aggregation concentration was ≤ 100 µM. B5 was tested, and the aggregation concentration was ≤ 100 µM.

Target: the molecule itself
Assay: conversion rate assay (3 kDa centrifugal filtration, fluorescamine fluorescence); self-assembly; 1 mM peptide incubated 24 h, monomers separated from fibers at 12 000 g for 60 min at 4 °C; filtrated against nonfiltrated fluorescence
Protein B1 has a conversion rate of 94%. For B2, the conversion rate was 93%. Work on B3 yielded a conversion rate of 73%. Work on B4 yielded a conversion rate of 94%. B5 gave a conversion rate of 62%.

From PMC12499481, “Design of the Hydrophobic Core of Self‐Assembling Peptide Fibrils for Enhanced Neural Regeneration” (Small Science, 2025)
